Legend:
Conditions in all cases: reference: unphosphorylated MAP2c; sites Y67
[1] = target: Grb2 (growth factor receptor-bound protein 2) SH2 domain, 57-158 (UniProt P62993); experiment: NMR HNCO chemical shift perturbation of MAP2c
[2] = target: Grb2 (growth factor receptor-bound protein 2) SH2 domain, 57-158 (UniProt P62993); experiment: 1H,15N HSQC titration of 15N-Grb2-SH2 with MAP2c
[3] = target: Grb2 (growth factor receptor-bound protein 2) SH2 domain, 57-158 (UniProt P62993); experiment: NMR HNCO peak broadening of labeled MAP2c

## MAP2c (microtubule-associated protein 2c) (from UniProt P15146) Fyn-phosphorylated MAP2c
[1]
  binding against the reference: gained
[2]
  KD: gained; reference No significant CCSP
[3]
  binding against the reference: stronger

From paper PMC11367651
